T1: rat GLP-1 receptor (rat, UniProt P32301 22-463)
T1 sequence (looked up): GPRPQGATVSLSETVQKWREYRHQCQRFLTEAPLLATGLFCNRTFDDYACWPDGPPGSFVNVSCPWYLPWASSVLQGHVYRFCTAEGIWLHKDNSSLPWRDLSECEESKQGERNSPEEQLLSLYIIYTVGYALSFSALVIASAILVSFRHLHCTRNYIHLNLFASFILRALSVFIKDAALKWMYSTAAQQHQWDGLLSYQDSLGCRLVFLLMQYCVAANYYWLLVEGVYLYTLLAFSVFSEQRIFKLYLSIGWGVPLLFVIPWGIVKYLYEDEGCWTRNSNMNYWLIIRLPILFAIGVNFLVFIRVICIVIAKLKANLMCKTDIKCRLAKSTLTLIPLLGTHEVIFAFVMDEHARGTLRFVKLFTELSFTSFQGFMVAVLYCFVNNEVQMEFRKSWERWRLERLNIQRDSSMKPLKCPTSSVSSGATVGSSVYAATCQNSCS

T2: mouse GLP-1 receptor (mouse, UniProt O35659 22-463)
T2 sequence (looked up): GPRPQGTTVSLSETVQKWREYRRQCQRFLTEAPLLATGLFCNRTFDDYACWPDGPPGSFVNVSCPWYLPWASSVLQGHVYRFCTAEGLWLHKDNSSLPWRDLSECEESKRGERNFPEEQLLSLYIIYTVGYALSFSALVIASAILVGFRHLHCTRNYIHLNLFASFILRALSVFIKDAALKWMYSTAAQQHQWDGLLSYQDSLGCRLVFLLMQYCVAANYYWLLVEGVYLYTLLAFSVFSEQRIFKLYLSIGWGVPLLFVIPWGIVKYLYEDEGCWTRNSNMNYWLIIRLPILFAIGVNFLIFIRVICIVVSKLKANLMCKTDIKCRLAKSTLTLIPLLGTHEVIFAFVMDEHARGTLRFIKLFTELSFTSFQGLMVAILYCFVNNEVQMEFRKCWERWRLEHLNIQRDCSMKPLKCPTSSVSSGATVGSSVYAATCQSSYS

T3: human GIP receptor (human, UniProt P48546 22-466)
T3 sequence (looked up): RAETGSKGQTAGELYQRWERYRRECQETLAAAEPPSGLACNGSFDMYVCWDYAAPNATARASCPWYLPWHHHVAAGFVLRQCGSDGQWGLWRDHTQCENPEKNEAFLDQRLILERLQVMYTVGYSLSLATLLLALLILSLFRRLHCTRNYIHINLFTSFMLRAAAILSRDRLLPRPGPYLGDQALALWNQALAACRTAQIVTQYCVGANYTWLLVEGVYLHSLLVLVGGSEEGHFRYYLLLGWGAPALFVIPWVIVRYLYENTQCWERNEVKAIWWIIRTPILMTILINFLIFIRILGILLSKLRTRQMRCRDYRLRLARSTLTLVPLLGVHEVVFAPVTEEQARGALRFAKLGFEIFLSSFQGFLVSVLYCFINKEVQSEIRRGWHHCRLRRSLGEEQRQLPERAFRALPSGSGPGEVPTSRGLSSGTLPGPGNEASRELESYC

T4: rat GIP receptor (rat, UniProt P43219 19-455)
T4 sequence (looked up): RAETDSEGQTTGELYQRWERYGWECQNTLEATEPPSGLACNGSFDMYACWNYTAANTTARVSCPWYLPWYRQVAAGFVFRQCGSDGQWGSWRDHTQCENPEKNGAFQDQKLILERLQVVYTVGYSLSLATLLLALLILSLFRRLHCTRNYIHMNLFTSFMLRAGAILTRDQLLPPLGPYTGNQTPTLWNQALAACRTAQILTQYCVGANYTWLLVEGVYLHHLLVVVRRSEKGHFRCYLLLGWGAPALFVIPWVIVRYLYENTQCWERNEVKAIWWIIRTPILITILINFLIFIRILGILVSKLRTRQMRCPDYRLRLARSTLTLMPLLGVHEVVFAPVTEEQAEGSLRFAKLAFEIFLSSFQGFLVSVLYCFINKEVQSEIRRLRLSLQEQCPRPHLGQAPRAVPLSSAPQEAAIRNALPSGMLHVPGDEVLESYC

T5: mouse GIP receptor (mouse, UniProt Q0P543 19-460)
T5 sequence (looked up): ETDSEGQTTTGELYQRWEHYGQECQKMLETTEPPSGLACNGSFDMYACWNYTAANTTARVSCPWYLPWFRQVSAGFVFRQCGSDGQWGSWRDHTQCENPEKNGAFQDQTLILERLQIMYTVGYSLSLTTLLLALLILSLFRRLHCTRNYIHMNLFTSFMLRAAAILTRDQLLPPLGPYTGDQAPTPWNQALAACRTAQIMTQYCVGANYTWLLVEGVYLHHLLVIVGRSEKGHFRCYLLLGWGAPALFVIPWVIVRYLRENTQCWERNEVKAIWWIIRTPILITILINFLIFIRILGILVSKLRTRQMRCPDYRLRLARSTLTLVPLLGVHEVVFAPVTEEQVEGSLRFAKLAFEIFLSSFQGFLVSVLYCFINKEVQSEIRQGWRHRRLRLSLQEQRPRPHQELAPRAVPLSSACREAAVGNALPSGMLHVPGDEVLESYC

B1: IP131 (Fc fusion)
chain: YSEGTFTSDYSKLLEEEAVRLFIEWLLAGGGGGGSGGGGSGGGGSGGGGSATHTCPPCPAPEF
B2: IP266 (Fc fusion)
chain: YSEGTFTSDYSKLLEEEAVRLFIEWLLAGAPPGGSGGGGSGGGGSGGGGSATHTCPPCPAPEF
B3: IP267 (Fc fusion)
chain: YSEGTFTSDYSKLLEEEHVRLFIEWLVKGPGGGGGSGGGGSGGGGSGGGGSATHTCPPC
B4: IP201 (Fc fusion)
chain: YSEGTFTSDYSKLLEEEAVRLFIEWLLAGPSSGAPPPSAAAGGSGSTASSGSGSATGGGGAATHTCPPCPAPEF
B5: IP253 (Fc fusion)
chain: YSEGTFTSDYSKLLDEEAVRLFIEWLLAGAPPGGSGSTASSGSGSATGGGGAATHTCPPCPAPEF
B6: IP243 (Fc fusion)
chain: YSEGTFTSDYSKLLEEEAQRLFIEWLVKGPAAAGGSGSTASSGSGSATGGGGAATHTCPPCPAPEF
B7: IP212 (Fc fusion)
chain: YSEGTFTSDYSKLLEEEAVREFIAWLVKGPAAAGGSGSTASSGSGSATGGGGAATHTCPPCPAPEF
B8: IP200 (Fc fusion)
chain: YSQGTFTSDYSKILEEEAVRLFIEWLVKGPAAAGGSGSTASSGSGSATGGGGAATHTCPPCPAPEF
B9: IP258 (Fc fusion)
chain: YSEGTFTSDYSKLLDEEAVRLFIEWLVKGPGGGGGSGGGGSGGGGSGGGGSATHTCPPCPAPEF
B10: IP262 (Fc fusion)
chain: YSEGTFTSDYSKLLEEEAVRLFIEWLLKGPGGGGGSGGGGSGGGGSGGGGSATHTCPPCPAPEF
B11: IP259 (Fc fusion)
chain: YSEGTFTSDYSKLLEKEAVRLFIEWLVKGPGGGGGSGGGGSGGGGSGGGGSATHTCPPCPAPEF
B12: IP264 (Fc fusion)
chain: YSEGTFTSDYSKLLEEEAVRLFIEWLVKGKGGGGGSGGGGSGGGGSGGGGSATHTCPPCPAPEF
B13: IP261 (Fc fusion)
chain: YSEGTFTSDYSKLLEEEAVRLFVEWLVKGPGGGGGSGGGGSGGGGSGGGGSATHTCPPCPAPEF
B14: IP263 (Fc fusion)
chain: YSEGTFTSDYSKLLEEEAVRLFIEWLVKQPGGGGGSGGGGSGGGGSGGGGSATHTCPPCPAPEF
B15: IP260 (Fc fusion)
chain: YSEGTFTSDYSKLLEEEAVQLFIEWLVKGPGGGGGSGGGGSGGGGSGGGGSATHTCPPCPAPEF

Tests used:
Assay in all cases: cell-based or functional assay
human GLP-1 receptor = human GLP-1 receptor (human, UniProt P43220 24-463)
rat GLP-1 receptor = biological target: T1, rat GLP-1 receptor
mouse GLP-1 receptor = biological target: T2, mouse GLP-1 receptor
human GIP receptor = biological target: T3, human GIP receptor
human glucagon receptor = human glucagon receptor (human, UniProt P47871 26-477)
rat GIP receptor = biological target: T4, rat GIP receptor
mouse GIP receptor = biological target: T5, mouse GIP receptor

| Binder | cAMP EC50 (human GLP-1 receptor) [nM] | cAMP EC50 (rat GLP-1 receptor) [nM] | cAMP EC50 (mouse GLP-1 receptor) [nM] | cAMP EC50 (human GIP receptor) [nM] | cAMP EC50 (human glucagon receptor) [nM] | cAMP EC50 (rat GIP receptor) [nM] | cAMP EC50 (mouse GIP receptor) [nM] | cAMP EC50, Batch 2 (human GLP-1 receptor) [nM] | cAMP EC50, Batch 2 (rat GLP-1 receptor) [nM] | cAMP EC50, Batch 2 (mouse GLP-1 receptor) [nM] | cAMP EC50, Batch 2 (human GIP receptor) [nM] | cAMP EC50, Batch 2 (human glucagon receptor) [nM] | cAMP EC50, Batch 2 (rat GIP receptor) [nM] | cAMP EC50, Batch 2 (mouse GIP receptor) [nM] | cAMP EC50, Batch 3 (human GLP-1 receptor) [nM] | cAMP EC50, Batch 3 (human GIP receptor) [nM] | cAMP EC50, Batch 3 (human glucagon receptor) [nM] |
| --- | --- | --- | --- | --- | --- | --- | --- | --- | --- | --- | --- | --- | --- | --- | --- | --- | --- |
| B1 | 0.1 | 0.1 | 1 | 0.0091 | 23 | 0.23 | 5.1 |  |  |  |  |  |  |  |  |  |  |
| B2 | 0.15 | 0.3 | 0.76 | 0.012 | 16 | 0.038 | 0.3 |  |  |  |  |  |  |  |  |  |  |
| B3 | 1.5 | 0.3 | 10 | 0.12 | 5800 | 0.81 | > 278 |  |  |  |  |  |  |  |  |  |  |
| B4 | 0.2 | 0.098 | 0.65 | 0.011 | 3.9 | 0.23 | 4.3 | 0.56 | 0.028 | 0.41 | 0.034 | 11 | 0.019 | 1.6 |  |  |  |
| B5 | 0.26 | 0.21 | 3.8 | 0.0093 | 78 | 0.024 | 0.61 |  |  |  |  |  |  |  |  |  |  |
| B6 | 0.25 | 0.024 | 0.36 | 0.01 | > 2100 | 0.091 | 32 | 0.21 |  |  | 0.0069 | 1400 |  |  | 0.17 | 0.0072 | 1400 |
| B7 | 0.087 | 0.034 | 0.35 | 0.0081 | > 4000 | 0.12 | 190 |  |  |  |  |  |  |  |  |  |  |
| B8 | 0.12 |  |  | 0.018 | 0.11 |  |  | 0.077 | 0.028 | 0.34 | 0.012 | 0.083 | 0.25 | 160 |  |  |  |
| B9 | 0.42 | 0.12 | 2.3 | 0.039 | > 19000 | 1.5 | 870 |  |  |  |  |  |  |  |  |  |  |
| B10 | 0.21 | 0.036 | 0.53 | 0.01 | 63 | 0.019 | 3 |  |  |  |  |  |  |  |  |  |  |
| B11 | 0.1 | 0.029 | 0.31 | 0.027 | > 480 | 0.033 | 12 |  |  |  |  |  |  |  |  |  |  |
| B12 | 0.1 | 0.026 | 0.3 | 0.017 | > 9800 | 0.094 | 97 |  |  |  |  |  |  |  |  |  |  |
| B13 | 0.14 | 0.028 | 0.34 | 0.03 | > 2400 | 0.27 | 230 |  |  |  |  |  |  |  |  |  |  |
| B14 | 0.14 | 0.042 | 0.96 | 0.027 | > 18000 | 1.1 | 7000 |  |  |  |  |  |  |  |  |  |  |
| B15 | 0.91 | 0.25 | 5.3 | 0.033 | > 16000 | 0.45 | 2400 |  |  |  |  |  |  |  |  |  |  |

Source: patent publication US20160185837A1 (AstraZeneca / MedImmune, published 2016)
